Where “and” joins values, the source holds several entries; their conditions need not be identical. Equal values may be shown once.
Columns and labels:
[1] = target: PcrV of P. aeruginosa strain PA103 (on TTSS-induced bacteria) (Pseudomonas aeruginosa strain PA103); assay: cell-based or functional assay
[2] = target: different PcrV variants and reference strain PAO1 (23 PcrV sequence variants, GST-PcrV-His6)

Row | Binder | % inhibition in P3X63 cytotoxicity assay, extract 1/150 [1] [%] | EC50 [2]
1 | 5E02-40GS-1E11 (VHH) EVQLVESGGGLVQPGGSLRLSCAASGITLDSIAICWFRQAPGKEREGVSCSRGSDGSTYYADSVKGRFTISRVNAKNTVYLQMNSLKPEDTAVYYCAAAPSIFYSGGYFPSGMDYWGKGTQVTVSSGGGGSGGGGSGGGGSGGGGSGGGGSGGGGSGGGGSGGGGSEVQLVESGGGLVQPGGSLRLSCAASGSTRSVNPMAWFRQAPGRQREWVATISRSGYATYADSVKGRFTISGDNAKSSVYLQMNSLKPEDTAVYYCVTGTYWGQGTLVTVSS | 60 | 
2 | 5E02-40GS-14E10 (VHH) EVQLVESGGGLVQPGGSLRLSCAASGITLDSIAICWFRQAPGKEREGVSCSRGSDGSTYYADSVKGRFTISRVNAKNTVYLQMNSLKPEDTAVYYCAAAPSIFYSGGYFPSGMDYWGKGTQVTVSSGGGGSGGGGSGGGGSGGGGSGGGGSGGGGSGGGGSGGGGSEVQLVESGGGLVQPGGSLRLSCAASGRIFSINTMGWYRQAPGKQRELVAGVTINAITNYADSVKGRFTISRDNAKNTVWLQMNSLKPEDTAVYYCHAWARSSGSAPYSQNWGQGTQVTVSS | 48 | 
3 | 1E11-40GS-4G10 (VHH) EVQLVESGGGLVQPGGSLRLSCAASGSTRSVNPMAWFRQAPGRQREWVATISRSGYATYADSVKGRFTISGDNAKSSVYLQMNSLKPEDTAVYYCVTGTYWGQGTLVTVSSGGGGSGGGGSGGGGSGGGGSGGGGSGGGGSGGGGSGGGGSEVQLVESGGGLVQAGGSLRLSCVISEDGVRNYDMGWFRQAPGKEREFVATINWSGGSTNYADSVKGRFTVSRDNAKNTMYLQMDSLKPEDTAVYYCVAAGFYNNYLRTAPNDWNDWGQGTQVTVSS | 67 | 
4 | 1E11-40GS-14B10 (VHH) EVQLVESGGGLVQPGGSLRLSCAASGSTRSVNPMAWFRQAPGRQREWVATISRSGYATYADSVKGRFTISGDNAKSSVYLQMNSLKPEDTAVYYCVTGTYWGQGTLVTVSSGGGGSGGGGSGGGGSGGGGSGGGGSGGGGSGGGGSGGGGSEVQLVESGGGLVQPGGSLRLSCAASGRIFSINNMGWYHQAPGKQRELVATITMNGITTYADSVKGRFTISRDNAKNTVYLQMNSLKPEDTAVYYCSCWVRSSGGDPYRDYWGQGTQVTVSS | 52 | 
5 | 1E11-40GS-5E02 (VHH) EVQLVESGGGLVQPGGSLRLSCAASGSTRSVNPMAWFRQAPGRQREWVATISRSGYATYADSVKGRFTISGDNAKSSVYLQMNSLKPEDTAVYYCVTGTYWGQGTLVTVSSGGGGSGGGGSGGGGSGGGGSGGGGSGGGGSGGGGSGGGGSEVQLVESGGGLVQPGGSLRLSCAASGITLDSIAICWFRQAPGKEREGVSCSRGSDGSTYYADSVKGRFTISRVNAKNTVYLQMNSLKPEDTAVYYCAAAPSIFYSGGYFPSGMDYWGKGTQVTVSS | 44 | 
6 | Nanobody 115 (11B09-40GS-13F07) (VHH) EVQLVESGGGLVQAGGSLRLSCAASRLTFNHYNMGWFRQAPGKERERVAEVTWSGDKIYYVDSVKGRFTISRDNTPNPVYLYLQMNSLKPEDTAVYYCATAPRGLPYANGYWGQGTLVTVSSGGGGSGGGGSGGGGSGGGGSGGGGSGGGGSGGGGSGGGGSEVQLVESGGGLVQAGGSLRLSCAASGNTFSTNPMYWYRQAEGKQRELVASISSRGITNYADSVRGRFSISRDNTKDTVYLQMNSLKPEDTAVYYCRLASLSSGTVYWGKGTLVTVSS | 82 | 
7 | Nanobody 256 (13F07-40GS-5H01) (VHH) EVQLVESGGGLVQAGGSLRLSCAASGNTFSTNPMYWYRQAEGKQRELVASISSRGITNYADSVRGRFSISRDNTKDTVYLQMNSLKPEDTAVYYCRLASLSSGTVYWGKGTLVTVSSGGGGSGGGGSGGGGSGGGGSGGGGSGGGGSGGGGSGGGGSEVQLVESGGGLVQPGGSLRLSCAASGSTLDYYAIGWFRQAPGKEREGVSCTSNSGSTYYGGSVKGRFTASRDNAKNTVYLQMNSLRPEDTAVYYCVATIGCATLGGTLDVQRYYYRGQGTLVTVSS |  | 0.07 nM and 0.1 nM
8 | Nanobody 257 (13F07-40GS-2B10) (VHH) EVQLVESGGGLVQAGGSLRLSCAASGNTFSTNPMYWYRQAEGKQRELVASISSRGITNYADSVRGRFSISRDNTKDTVYLQMNSLKPEDTAVYYCRLASLSSGTVYWGKGTLVTVSSGGGGSGGGGSGGGGSGGGGSGGGGSGGGGSGGGGSGGGGSEVQLVESGGGLVQPGGSLRLSCAASGSIFSINNMGWYRQAPGKQRELVTVVTSNLITTYADSVKGRFTISRDNAKNTVYLQMNSLKPEDTAVYYCNAWARSVGSVPYSQFWGQGTLVTVSS |  | 0.07 nM and 0.09 nM
9 | Nanobody 259 (1E11-40GS-5H01) (VHH) EVQLVESGGGLVQPGGSLRLSCAASGSTRSVNPMAWFRQAPGRQREWVATISRSGYATYADSVKGRFTISGDNAKSSVYLQMNSLKPEDTAVYYCVTGTYWGQGTLVTVSSGGGGSGGGGSGGGGSGGGGSGGGGSGGGGSGGGGSGGGGSEVQLVESGGGLVQPGGSLRLSCAASGSTLDYYAIGWFRQAPGKEREGVSCTSNSGSTYYGGSVKGRFTASRDNAKNTVYLQMNSLRPEDTAVYYCVATIGCATLGGTLDVQRYYYRGQGTLVTVSS |  | 0.01 nM and 0.02 nM
10 | Nanobody 261 (5H01-40GS-2B10) (VHH) EVQLVESGGGLVQPGGSLRLSCAASGSTLDYYAIGWFRQAPGKEREGVSCTSNSGSTYYGGSVKGRFTASRDNAKNTVYLQMNSLRPEDTAVYYCVATIGCATLGGTLDVQRYYYRGQGTLVTVSSGGGGSGGGGSGGGGSGGGGSGGGGSGGGGSGGGGSGGGGSEVQLVESGGGLVQPGGSLRLSCAASGSIFSINNMGWYRQAPGKQRELVTVVTSNLITTYADSVKGRFTISRDNAKNTVYLQMNSLKPEDTAVYYCNAWARSVGSVPYSQFWGQGTLVTVSS |  | 0.06 nM and 0.07 nM
11 | Nanobody 271 (7C10-40GS-14E10) (VHH) EVQLVESGGGLVQAGGSLRLSCTASGRTLSSYTMGWFRQAPGTEREFVAAMTRSGFNTYYADSVKGRFTISRDSTENTMALQMSSLKPEDTAVYYCTAGRGLTSYRADYWGQGTLVTVSSGGGGSGGGGSGGGGSGGGGSGGGGSGGGGSGGGGSGGGGSEVQLVESGGGLVQPGGSLRLSCAASGRIFSINTMGWYRQAPGKQRELVAGVTINAITNYADSVKGRFTISRDNAKNTVWLQMNSLKPEDTAVYYCHAWARSSGSAPYSQNWGQGTLVTVSS |  | 0.06 nM and 0.1 nM
12 | Nanobody 275 (2G09-40GS-5H01) (VHH) EVQLVESGGGLVQPGGSLRLSCAASGSFGDNYELYAMTWFRQAPGERRDFVASVTGDGSTSYADSVKDRFTISRDNAKKLMYLQMNSLKPEDTAVYYCRLLNYWGQGTLVTVSSGGGGSGGGGSGGGGSGGGGSGGGGSGGGGSGGGGSGGGGSEVQLVESGGGLVQPGGSLRLSCAASGSTLDYYAIGWFRQAPGKEREGVSCTSNSGSTYYGGSVKGRFTASRDNAKNTVYLQMNSLRPEDTAVYYCVATIGCATLGGTLDVQRYYYRGQGTLVTVSS |  | 0.6 nM and 0.9 nM
13 | Nanobody 277 (5H01-40GS-11B09) (VHH) EVQLVESGGGLVQPGGSLRLSCAASGSTLDYYAIGWFRQAPGKEREGVSCTSNSGSTYYGGSVKGRFTASRDNAKNTVYLQMNSLRPEDTAVYYCVATIGCATLGGTLDVQRYYYRGQGTLVTVSSGGGGSGGGGSGGGGSGGGGSGGGGSGGGGSGGGGSGGGGSEVQLVESGGGLVQAGGSLRLSCAASRLTFNHYNMGWFRQAPGKERERVAEVTWSGDKIYYVDSVKGRFTISRDNTPNPVYLYLQMNSLKPEDTAVYYCATAPRGLPYANGYWGQGTLVTVSS |  | 0.07 nM and 0.1 nM
14 | Nanobody 285 (13F07-40GS-2B02) (VHH) EVQLVESGGGLVQAGGSLRLSCAASGNTFSTNPMYWYRQAEGKQRELVASISSRGITNYADSVRGRFSISRDNTKDTVYLQMNSLKPEDTAVYYCRLASLSSGTVYWGKGTLVTVSSGGGGSGGGGSGGGGSGGGGSGGGGSGGGGSGGGGSGGGGSEVQLVESGGGLVQPGDSLRLSCAASGRILSINNMVWYRQAPGKQRELVAHITSSGSTGYADSVKGRFTISRDNAKNTFYLQMTNLNPEDTAVYYCNCWVSSDSNAPLKNYWGQGTLVTVSS |  | 0.1 nM
15 | Nanobody 319 (13F07-40GS-6B05) (VHH) EVQLVESGGGLVQAGGSLRLSCAASGNTFSTNPMYWYRQAEGKQRELVASISSRGITNYADSVRGRFSISRDNTKDTVYLQMNSLKPEDTAVYYCRLASLSSGTVYWGKGTLVTVSSGGGGSGGGGSGGGGSGGGGSGGGGSGGGGSGGGGSGGGGSEVQLVESGGGLVQPGGSLRLSCAASGSIFSINTMGWYRQAPGKQRELVSTITSNLVPHYADSVQGRFTISRDNARNTVYLQMNSLKPQDTAHYYCNAWARSSGATPYTNYWGQGTLVTVSS |  | 0.08 nM and 0.1 nM
16 | Nanobody 335 (5H01-40GS-1E11) (VHH) EVQLVESGGGLVQPGGSLRLSCAASGSTLDYYAIGWFRQAPGKEREGVSCTSNSGSTYYGGSVKGRFTASRDNAKNTVYLQMNSLRPEDTAVYYCVATIGCATLGGTLDVQRYYYRGQGTLVTVSSGGGGSGGGGSGGGGSGGGGSGGGGSGGGGSGGGGSGGGGSEVQLVESGGGLVQPGGSLRLSCAASGSTRSVNPMAWFRQAPGRQREWVATISRSGYATYADSVKGRFTISGDNAKSSVYLQMNSLKPEDTAVYYCVTGTYWGQGTLVTVSS |  | 0.07 nM and 0.09 nM

— patent US20190055322A1
